Usually stoichiometry N stands for a count of units in the complex or per binding partner.

These results are taken from article doi:10.1101/322719.

The test concerns the target Kaposi's sarcoma-associated herpesvirus (KSHV) ORF68 protein (Kaposi's sarcoma-associated herpesvirus (KSHV)). The test can be described thus: SEC. For orientation: SEC sorts molecules by how far they enter the pores of the column.

“Kaposi's sarcoma-associated herpesvirus (KSHV) ORF68 protein (natural protein)” displayed a stoichiometry N of 5.
